Data published in patent US7439329B2, “GEF-H1b: biomarkers, complexes assays and therapeutic uses thereof” (Sugen, Inc., priority 2002, dated 2008).

Assays:
GEF-H1S = target: T1, GEF-H1S (Homo sapiens, UniProt Q92974, INS962GETLAETWTR); assay: Pull-down of GEF-H1 with PAK4 domains and biotinylated PAK4 peptides; assay type: binding; details: biotinylated PAK4 peptides linked to streptavidin beads
T1 sequence (Q92974 with tags, fused parts or gaps): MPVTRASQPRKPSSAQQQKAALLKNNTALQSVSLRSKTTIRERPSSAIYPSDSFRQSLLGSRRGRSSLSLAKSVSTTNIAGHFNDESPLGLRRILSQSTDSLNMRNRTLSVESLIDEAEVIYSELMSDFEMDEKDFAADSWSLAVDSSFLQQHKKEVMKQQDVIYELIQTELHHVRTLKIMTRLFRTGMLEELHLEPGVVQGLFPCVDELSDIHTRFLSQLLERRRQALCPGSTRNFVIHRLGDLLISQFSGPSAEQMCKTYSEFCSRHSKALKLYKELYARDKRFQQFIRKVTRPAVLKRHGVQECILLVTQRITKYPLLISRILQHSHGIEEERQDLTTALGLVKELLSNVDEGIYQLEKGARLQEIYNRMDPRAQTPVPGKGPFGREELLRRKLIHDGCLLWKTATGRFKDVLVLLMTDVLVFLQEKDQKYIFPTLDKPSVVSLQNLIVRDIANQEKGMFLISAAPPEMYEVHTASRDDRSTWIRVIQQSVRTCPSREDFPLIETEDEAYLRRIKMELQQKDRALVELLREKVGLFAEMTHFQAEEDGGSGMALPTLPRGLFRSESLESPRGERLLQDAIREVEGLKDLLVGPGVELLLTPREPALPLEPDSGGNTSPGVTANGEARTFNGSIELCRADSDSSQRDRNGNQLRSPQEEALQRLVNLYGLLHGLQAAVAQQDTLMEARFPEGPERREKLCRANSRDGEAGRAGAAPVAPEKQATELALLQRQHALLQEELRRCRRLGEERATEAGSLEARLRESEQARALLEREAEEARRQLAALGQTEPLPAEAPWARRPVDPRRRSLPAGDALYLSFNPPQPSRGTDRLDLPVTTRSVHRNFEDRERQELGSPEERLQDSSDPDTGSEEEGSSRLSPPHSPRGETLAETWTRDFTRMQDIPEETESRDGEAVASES
Description: FIG. 1: (SEQ ID NOs 32-34 respectively in order of appearance) Direct binding of GEF-H1 to PAK4. Lysates were prepared from 293T cells over expressing (a) myc tagged PAK4 alleles or subdomains and incubated with GST, GST-GEF-H1 (787-921) and GST-Maguin-like bound to Glutathione beads (1,2,3,4 bead designation) or (b) GFP-GEF-H1 and incubated with PAK4 biotinylated peptides (291-355) and (276-324) linked to streptavidin beads. An equivalent amount of beads and excess lysates (500 ug) were used. Eluates of beads and total lysates were analysed by SDS-PAGE and immunoblotted with myc or GEF-H1 antiserum; (c) represents a PAK4 gene schematic outlining the regions of PAK4 used to identify the GEF-H1 interaction domain (GID). d, alignment of the GID defined by the minimal binding region of PAK4 with PAK5 and PAK6.
To confirm the in vitro interaction of GEF-H1S with PAK4, bacterially expressed GST-fusion proteins were generated with the identical sequences isolated by phage display, encoding either amino acids 763-921 of GEF-H1S or amino acids 385-555 from the Maguin-2-like protein. These fusion proteins were bound to glutathione beads and utilized in binding assays with 293T lysates expressing exogenous PAK4.
Biotinylated peptides derived from the N-terminal region of PAK4 sequence were used to further map the GEF-H1 binding site. […]

PAK4 = target: T2, PAK4 (Homo sapiens, UniProt O96013); assay: In vitro kinase assay, phosphorylation of substrates by PAK4; assay type: biochemical; details: autoradiography
T2 construct: Glutathione-s-transferase (GST) fused PAK4 (residues 291-591); GST (N); made in house
T2 sequence (O96013 291-591): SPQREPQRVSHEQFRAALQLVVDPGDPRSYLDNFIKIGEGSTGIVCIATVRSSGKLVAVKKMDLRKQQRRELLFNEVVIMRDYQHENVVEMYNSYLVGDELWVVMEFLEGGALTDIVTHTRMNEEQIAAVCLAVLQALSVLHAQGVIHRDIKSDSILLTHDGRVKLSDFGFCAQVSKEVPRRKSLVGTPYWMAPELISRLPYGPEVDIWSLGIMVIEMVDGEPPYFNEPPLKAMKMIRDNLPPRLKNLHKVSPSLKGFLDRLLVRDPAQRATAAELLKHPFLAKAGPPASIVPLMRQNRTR
Description: Next examined, was whether GEF-H1 is a PAK4 substrate. In vitro kinase assays were performed using a GEF-H1 GST-fusion protein, a Maguin-2-like GST-fusion protein and GST control protein as substrates for phosphorylation by PAK4.
The cDNA encoding GEF-H1S obtained in the phage display screen was excised and subcloned into pGEX-4T expression vector to allow for recombinant production of protein for in vitro experiments. The GEF-H1S protein was then mixed with PAK4 kinase and incubated such that PAK4 phosphorylated the GEF-H1S. A portion of this kinase reaction was separated by SDS-PAGE and autoradiographed to visualize the extent of phosphorylation. […] SDS-PAGE is a universal protein separation and visualization technique that is described in Laemmli, Nature, 227(259):680-5, 1970.
From the phosphorylation experiments described above, two peptides of GEF-H1S were identified as being targets for PAK4-induced phosphorylation. The GEF-H1S target residues were identified by aligning the PAK4 activation loop peptide with the GEF-H1S polypeptide sequence amino acids 762 to 921.
The following phosphoisomers (phosphate-modified GEF-H1S peptides) were used in PAK4 kinase assays to determine which residues were specifically phosphorylated. Because certain residues were modified to comprise a phosphate moiety (the underlined residues below), they could not be phosphorylated by PAK4.
Glutathione-s-transferase (GST) fused PAK4 (residues 291-591), GEF-H1 amino acids 763-921 (from phage clone 13.8 sequence, matches KIAA0651) and Maguin 2-like (from phage clone 13.32, sequence matches accession # XP-087831) were purified by standard procedures and as previously described 31. Amino acid sequence of peptides spanning GEF-H1b 807-824 #1008 (RRRSLPAGDALYLpSFNPP) (SEQ ID NO: 28), #1009 (RRRpSLPAGDALYLSFNPP) (SEQ ID NO: 29), #1010 (RRRSLPAGDALpYLSFNPP ) (SEQ ID NO: 30) and #934 (RRRSLPAGDALYLSFNPP) (SEQ ID NO: 3) used for in vitro kinase assays. In vitro kinase reactions were run as described previously 31.

| Sequence | interaction with GEF-H1S (GEF-H1S) | phosphorylation by PAK4 in vitro (PAK4) |
| --- | --- | --- |
| CTPAAPAVPAVPGPPGPRSPQREPQRVSHEQFRAALQLVVDPGDPRSYLDNF (biotin) [amino acids 276-324] | strong interaction | – |
| PRRRSLPAGDALYLSFNPP | – | phosphorylated |
| RQSLLGSRRGRSSLSLAK [GEF-H1 residues 55-72] | – | phosphorylated |
| RRRSLPAGDALYLSFNPP [amino acids 807-824, GEF-H1S peptide surrounding Ser 810] | – | high affinity substrate |
